Data as given in US20200199241A1 (Chugai, published 2020).
Substitutions are numbered along the chain they refer to. Numbers in names are those of the source.

T1: human FcγRIIa(R) (human, UniProt P12318 36-217)
T1 construct: also called FcgRIIaR; hFcgRIIa(R)
T1 chain: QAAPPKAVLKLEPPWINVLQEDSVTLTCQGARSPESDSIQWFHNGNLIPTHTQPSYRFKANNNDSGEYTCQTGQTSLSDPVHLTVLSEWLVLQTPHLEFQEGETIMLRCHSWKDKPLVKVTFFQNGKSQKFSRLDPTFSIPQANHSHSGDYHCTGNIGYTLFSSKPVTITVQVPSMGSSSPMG

T2: human FcγRIIa(H) (human, UniProt P12318 36-217)
T2 construct: also called FcgRIIaH; hFcgRIIa(H)
T2 sequence: T1 chain with R133H

T3: human FcγRIIb (human, UniProt P31994 43-217, limits assumed)
T3 construct: also called FcgRIIb; hFcgRIIb
T3 sequence: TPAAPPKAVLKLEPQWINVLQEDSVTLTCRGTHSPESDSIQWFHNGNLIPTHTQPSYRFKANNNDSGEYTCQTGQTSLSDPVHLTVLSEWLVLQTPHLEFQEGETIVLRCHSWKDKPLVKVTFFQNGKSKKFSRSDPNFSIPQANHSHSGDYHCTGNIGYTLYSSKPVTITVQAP

B1: GpH7-B3 N325H/GpL16-k0 (antibody, human IgG1)
heavy: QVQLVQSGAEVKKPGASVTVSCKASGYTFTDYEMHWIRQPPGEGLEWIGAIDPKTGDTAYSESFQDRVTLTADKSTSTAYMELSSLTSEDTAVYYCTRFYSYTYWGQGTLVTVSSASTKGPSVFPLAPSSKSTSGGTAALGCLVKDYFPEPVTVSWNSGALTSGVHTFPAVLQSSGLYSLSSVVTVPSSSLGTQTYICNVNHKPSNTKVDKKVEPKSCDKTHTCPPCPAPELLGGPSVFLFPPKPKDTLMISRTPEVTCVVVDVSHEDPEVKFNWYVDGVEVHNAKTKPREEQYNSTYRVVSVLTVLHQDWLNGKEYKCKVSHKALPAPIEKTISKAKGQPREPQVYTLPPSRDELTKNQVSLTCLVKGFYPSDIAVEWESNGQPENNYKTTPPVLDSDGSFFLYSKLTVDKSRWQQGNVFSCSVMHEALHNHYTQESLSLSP
light: DIVMTQSPLSLPVTPGEPASISCQASESLVHSNRNTYLHWYLQKPGQSPQLLIYKVSNRFSGVPDRFSGSGSGTDFTLKISRVEAEDVGVYYCSQNTHVPPTFGQGTKVEIE
notes: B3 variant; copies: 2 + 2
B2: GpH7-B3 L328N/GpL16-k0 (antibody, human IgG1)
heavy: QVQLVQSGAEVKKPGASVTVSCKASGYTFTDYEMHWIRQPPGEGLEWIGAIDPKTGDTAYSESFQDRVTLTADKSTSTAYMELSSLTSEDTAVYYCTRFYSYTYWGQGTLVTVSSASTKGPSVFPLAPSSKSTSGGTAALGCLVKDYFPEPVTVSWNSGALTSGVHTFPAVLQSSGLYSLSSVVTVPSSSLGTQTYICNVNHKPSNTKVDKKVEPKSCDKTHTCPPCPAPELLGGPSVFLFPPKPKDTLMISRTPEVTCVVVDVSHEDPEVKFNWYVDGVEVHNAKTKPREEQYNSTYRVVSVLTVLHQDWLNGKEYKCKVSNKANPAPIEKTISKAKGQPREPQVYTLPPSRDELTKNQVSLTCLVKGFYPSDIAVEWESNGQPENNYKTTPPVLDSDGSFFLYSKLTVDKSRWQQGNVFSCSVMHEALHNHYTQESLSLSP
light: B1 light
notes: B3 variant; copies: 2 + 2
B3: GpH7-B3 N325V/GpL16-k0 (antibody, human IgG1)
heavy: not shown
light: B1 light
notes: B3 variant; copies: 2 + 2
B4: GpH7-B3 N325K/GpL16-k0 (antibody, human IgG1)
heavy: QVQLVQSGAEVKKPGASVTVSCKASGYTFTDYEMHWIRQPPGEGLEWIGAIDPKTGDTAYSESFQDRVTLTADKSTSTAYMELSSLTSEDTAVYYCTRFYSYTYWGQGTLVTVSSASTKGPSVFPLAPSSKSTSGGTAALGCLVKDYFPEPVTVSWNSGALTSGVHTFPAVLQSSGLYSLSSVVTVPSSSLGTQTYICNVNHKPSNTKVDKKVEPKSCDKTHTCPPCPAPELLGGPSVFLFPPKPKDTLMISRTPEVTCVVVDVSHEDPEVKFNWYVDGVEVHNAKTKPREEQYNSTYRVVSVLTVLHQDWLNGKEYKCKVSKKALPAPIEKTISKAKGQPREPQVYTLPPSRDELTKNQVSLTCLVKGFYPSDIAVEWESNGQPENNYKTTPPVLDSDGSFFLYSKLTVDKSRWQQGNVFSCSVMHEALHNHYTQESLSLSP
light: B1 light
notes: B3 variant; copies: 2 + 2
B5: GpH7-B3 P271F/GpL16-k0 (antibody, human IgG1)
heavy: not shown
light: B1 light
notes: B3 variant; copies: 2 + 2
B6: GpH7-B3 P329L/GpL16-k0 (antibody, human IgG1)
heavy: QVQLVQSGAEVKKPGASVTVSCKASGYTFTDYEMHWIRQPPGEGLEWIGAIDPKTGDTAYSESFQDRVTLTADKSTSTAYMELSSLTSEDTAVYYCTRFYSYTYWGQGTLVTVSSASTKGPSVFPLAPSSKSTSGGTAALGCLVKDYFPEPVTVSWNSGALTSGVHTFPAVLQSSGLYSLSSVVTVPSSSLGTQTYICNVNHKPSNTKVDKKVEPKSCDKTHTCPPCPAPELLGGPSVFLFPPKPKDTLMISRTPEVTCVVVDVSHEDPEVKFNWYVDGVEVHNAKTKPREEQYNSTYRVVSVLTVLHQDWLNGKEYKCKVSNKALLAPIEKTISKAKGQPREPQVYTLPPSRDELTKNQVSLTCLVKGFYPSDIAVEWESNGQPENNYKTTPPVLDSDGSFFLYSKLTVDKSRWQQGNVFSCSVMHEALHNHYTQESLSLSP
light: B1 light
notes: B3 variant; copies: 2 + 2
B7: GpH7-B3 P271W/GpL16-k0 (antibody, human IgG1)
heavy: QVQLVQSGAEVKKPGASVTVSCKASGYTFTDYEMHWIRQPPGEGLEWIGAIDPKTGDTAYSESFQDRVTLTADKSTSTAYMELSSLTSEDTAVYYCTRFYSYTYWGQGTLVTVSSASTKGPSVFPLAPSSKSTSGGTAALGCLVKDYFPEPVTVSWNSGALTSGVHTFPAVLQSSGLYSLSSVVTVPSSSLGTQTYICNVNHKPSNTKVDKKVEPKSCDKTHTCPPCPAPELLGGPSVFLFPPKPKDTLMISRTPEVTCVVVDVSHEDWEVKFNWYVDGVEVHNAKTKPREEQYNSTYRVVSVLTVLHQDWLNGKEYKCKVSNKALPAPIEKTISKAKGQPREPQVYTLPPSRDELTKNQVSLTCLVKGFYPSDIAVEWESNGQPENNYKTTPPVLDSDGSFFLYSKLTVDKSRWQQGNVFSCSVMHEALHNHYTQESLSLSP
light: B1 light
notes: B3 variant; copies: 2 + 2
B8: GpH7-B3 P271Y/GpL16-k0 (antibody, human IgG1)
heavy: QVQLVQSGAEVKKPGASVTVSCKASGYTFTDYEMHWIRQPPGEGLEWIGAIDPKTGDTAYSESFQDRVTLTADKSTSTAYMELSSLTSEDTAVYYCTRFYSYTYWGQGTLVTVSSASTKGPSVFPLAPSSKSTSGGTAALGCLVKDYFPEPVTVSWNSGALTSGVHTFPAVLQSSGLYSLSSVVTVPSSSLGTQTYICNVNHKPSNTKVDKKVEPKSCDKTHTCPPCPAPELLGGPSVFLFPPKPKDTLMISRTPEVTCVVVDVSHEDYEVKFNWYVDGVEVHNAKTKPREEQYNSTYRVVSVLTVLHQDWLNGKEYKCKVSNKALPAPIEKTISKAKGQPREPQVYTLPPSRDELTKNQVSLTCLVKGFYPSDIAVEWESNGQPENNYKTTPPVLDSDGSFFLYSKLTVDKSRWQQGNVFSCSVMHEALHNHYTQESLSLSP
light: B1 light
notes: B3 variant; copies: 2 + 2
B9: GpH7-B3 N325A/GpL16-k0 (antibody, human IgG1)
heavy: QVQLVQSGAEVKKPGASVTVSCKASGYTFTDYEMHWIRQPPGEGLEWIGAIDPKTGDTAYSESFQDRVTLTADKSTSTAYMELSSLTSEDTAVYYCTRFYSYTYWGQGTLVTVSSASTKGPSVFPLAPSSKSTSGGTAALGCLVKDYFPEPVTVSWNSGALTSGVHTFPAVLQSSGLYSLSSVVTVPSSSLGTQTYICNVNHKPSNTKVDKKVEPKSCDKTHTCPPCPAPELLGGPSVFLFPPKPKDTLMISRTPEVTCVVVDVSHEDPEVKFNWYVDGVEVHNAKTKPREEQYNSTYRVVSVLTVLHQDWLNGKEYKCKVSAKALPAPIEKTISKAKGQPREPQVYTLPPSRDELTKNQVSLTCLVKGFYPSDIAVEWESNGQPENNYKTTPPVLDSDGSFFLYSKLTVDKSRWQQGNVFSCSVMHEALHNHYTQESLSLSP
light: B1 light
notes: B3 variant; copies: 2 + 2
B10: GpH7-B3 P329M/GpL16-k0 (antibody, human IgG1)
heavy: not shown
light: B1 light
notes: B3 variant; copies: 2 + 2
B11: GpH7-B3 P271R/GpL16-k0 (antibody, human IgG1)
heavy: not shown
light: B1 light
notes: B3 variant; copies: 2 + 2
B12: GpH7-B3 N325P/GpL16-k0 (antibody, human IgG1)
heavy: not shown
light: B1 light
notes: B3 variant; copies: 2 + 2
B13: GpH7-B3 P329G/GpL16-k0 (antibody, human IgG1)
heavy: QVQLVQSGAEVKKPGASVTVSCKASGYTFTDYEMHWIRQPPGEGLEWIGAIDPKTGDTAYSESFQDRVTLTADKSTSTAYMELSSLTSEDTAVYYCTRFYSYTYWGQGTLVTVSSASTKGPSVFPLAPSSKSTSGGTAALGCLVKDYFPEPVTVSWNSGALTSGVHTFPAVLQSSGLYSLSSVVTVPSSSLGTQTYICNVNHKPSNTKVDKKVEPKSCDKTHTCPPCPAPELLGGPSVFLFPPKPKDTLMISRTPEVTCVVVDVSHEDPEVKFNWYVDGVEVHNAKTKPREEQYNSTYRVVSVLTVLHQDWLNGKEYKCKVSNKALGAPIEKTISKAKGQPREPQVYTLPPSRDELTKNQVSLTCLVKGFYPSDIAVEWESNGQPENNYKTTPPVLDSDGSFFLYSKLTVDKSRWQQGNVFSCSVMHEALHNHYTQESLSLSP
light: B1 light
notes: B3 variant; copies: 2 + 2
B14: GpH7-B3 P271H/GpL16-k0 (antibody, human IgG1)
heavy: not shown
light: B1 light
notes: B3 variant; copies: 2 + 2
B15: GpH7-B3 L328P/GpL16-k0 (antibody, human IgG1)
heavy: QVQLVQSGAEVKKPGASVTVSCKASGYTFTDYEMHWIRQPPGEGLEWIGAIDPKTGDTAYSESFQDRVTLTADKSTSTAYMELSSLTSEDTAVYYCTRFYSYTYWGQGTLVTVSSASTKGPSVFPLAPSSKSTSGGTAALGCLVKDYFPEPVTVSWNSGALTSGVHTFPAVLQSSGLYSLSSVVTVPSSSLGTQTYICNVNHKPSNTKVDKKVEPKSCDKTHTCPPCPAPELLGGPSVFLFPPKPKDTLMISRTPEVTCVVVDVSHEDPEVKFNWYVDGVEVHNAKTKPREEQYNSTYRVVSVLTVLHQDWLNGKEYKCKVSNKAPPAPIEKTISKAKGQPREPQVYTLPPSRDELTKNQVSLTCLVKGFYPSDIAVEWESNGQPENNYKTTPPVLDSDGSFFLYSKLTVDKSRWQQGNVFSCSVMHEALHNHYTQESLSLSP
light: B1 light
notes: B3 variant; copies: 2 + 2
B16: GpH7-B3 L328R/GpL16-k0 (antibody, human IgG1)
heavy: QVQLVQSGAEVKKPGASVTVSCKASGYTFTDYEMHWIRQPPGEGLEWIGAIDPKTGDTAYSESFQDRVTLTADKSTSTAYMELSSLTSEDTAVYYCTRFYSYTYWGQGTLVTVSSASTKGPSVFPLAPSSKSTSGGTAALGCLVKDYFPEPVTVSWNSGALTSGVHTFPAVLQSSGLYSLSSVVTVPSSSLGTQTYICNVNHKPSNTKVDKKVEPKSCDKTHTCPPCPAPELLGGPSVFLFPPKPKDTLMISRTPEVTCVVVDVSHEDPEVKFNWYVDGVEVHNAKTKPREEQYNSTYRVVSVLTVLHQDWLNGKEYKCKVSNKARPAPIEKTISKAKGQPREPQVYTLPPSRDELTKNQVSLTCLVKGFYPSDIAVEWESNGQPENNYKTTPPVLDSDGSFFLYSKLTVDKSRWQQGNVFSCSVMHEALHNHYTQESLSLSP
light: B1 light
notes: B3 variant; copies: 2 + 2
B17: GpH7-B3 P329E/GpL16-k0 (antibody, human IgG1)
heavy: not shown
light: B1 light
notes: B3 variant; copies: 2 + 2

Target: T1, human FcγRIIa(R)
Assay: SPR, captured antibody;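 also: antibody captured on a sensor chip, Fcγ receptor flowed over at 25 °C, receptor binding normalized to the captured antibody amount and expressed relative to the reference antibody ×100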
Protocol: (§1) Interaction between each modified antibody and Fcγ receptor prepared in the manner described above was analyzed using the BIACORE™ T100 surface plasmon resonance system (GE Healthcare), BIACORE™ T200 surface plasmon resonance system (GE Healthcare), BIACORE™ A100 surface plasmon resonance system or BIACORE™ 4000 surface plasmon resonance system. HBS-EP+ (GE Healthcare) was used for the running buffer, and measurements were carried out at 25° C. The chips used were chips in which antigen peptides, Protein A (Thermo Scientific), Protein A/G (Thermo Scientific) or Protein L (ACTIGEN® protein (Alltech or BioVision) were immobilized on the Series S Sensor Chip CMS (GE Healthcare) or Series S Sensor Chip CM4 (GE Healthcare) by amine coupling, or chips in which preliminarily biotinylated antigen peptides were allowed to interact and then immobilized on the Series S Sensor Chip SA (certified) (GE Healthcare). The target antibodies were captured on these sensor chips, Fcγ receptor diluted with the running buffer was allowed to interact, followed by measurement of the amount of bound antibody. The amounts bound were compared between antibodies. However, since the amount of Fcγ receptor bound depends on the amount of captured antibody, the values used for comparison were first corrected by dividing the amount of Fcγ receptor bound by the captured amount of each antibody. Through reaction with 10 mM glycine-HCl at pH 1.5, the sensor chips were regenerated by washing off antibody captured on the sensor chips and used repeatedly.
(§2) Binding strength was evaluated according to the following method based on the results of analyzing the interaction with each FcγR. […] That value was then further multiplied by 100, and the resulting value was used as an indicator of relative binding activity to each FcγR.

relative binding activity | Binder
34 % of GpH7-B3/GpL16-k0 | B1
25 % of GpH7-B3/GpL16-k0 | B2
37 % of GpH7-B3/GpL16-k0 | B3
0 % of GpH7-B3/GpL16-k0 | B4
49 % of GpH7-B3/GpL16-k0 | B5
2 % of GpH7-B3/GpL16-k0 | B6
46 % of GpH7-B3/GpL16-k0 | B7
38 % of GpH7-B3/GpL16-k0 | B8
38 % of GpH7-B3/GpL16-k0 | B9
2 % of GpH7-B3/GpL16-k0 | B10
89 % of GpH7-B3/GpL16-k0 | B11
2 % of GpH7-B3/GpL16-k0 | B12
1 % of GpH7-B3/GpL16-k0 | B13
58 % of GpH7-B3/GpL16-k0 | B14
15 % of GpH7-B3/GpL16-k0 | B15
-13 % of GpH7-B3/GpL16-k0 | B16
-1 % of GpH7-B3/GpL16-k0 | B17

Target: T4, human FcγRIa (human, UniProt P12314 16-292, limits assumed)
T4 construct: also called FcgRIa; hFcgRIa
Assay: SPR, captured antibody;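 also: antibody captured on a sensor chip, Fcγ receptor flowed over at 25 °C, receptor binding normalized to the captured antibody amount and expressed relative to the reference antibody ×100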
Protocol: as §1, §2

T4 sequence (P12314 16-292 limits assumed): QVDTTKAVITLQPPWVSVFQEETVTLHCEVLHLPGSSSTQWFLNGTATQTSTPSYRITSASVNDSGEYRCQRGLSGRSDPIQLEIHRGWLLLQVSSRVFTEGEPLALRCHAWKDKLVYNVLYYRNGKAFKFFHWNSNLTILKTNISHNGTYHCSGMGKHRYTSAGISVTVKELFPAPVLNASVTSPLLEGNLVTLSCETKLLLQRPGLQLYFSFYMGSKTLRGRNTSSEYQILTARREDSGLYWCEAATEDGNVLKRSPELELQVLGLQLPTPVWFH

relative binding activity | Binder
93 % of GpH7-B3/GpL16-k0 | B1
98 % of GpH7-B3/GpL16-k0 | B2
84 % of GpH7-B3/GpL16-k0 | B3
55 % of GpH7-B3/GpL16-k0 | B4
99 % of GpH7-B3/GpL16-k0 | B5
68 % of GpH7-B3/GpL16-k0 | B6
100 % of GpH7-B3/GpL16-k0 | B7
98 % of GpH7-B3/GpL16-k0 | B8
94 % of GpH7-B3/GpL16-k0 | B9
69 % of GpH7-B3/GpL16-k0 | B10
100 % of GpH7-B3/GpL16-k0 | B11
50 % of GpH7-B3/GpL16-k0 | B12
92 % of GpH7-B3/GpL16-k0 | B13
98 % of GpH7-B3/GpL16-k0 | B14
78 % of GpH7-B3/GpL16-k0 | B15
26 % of GpH7-B3/GpL16-k0 | B16
33 % of GpH7-B3/GpL16-k0 | B17

Target: T2, human FcγRIIa(H)
Assay: SPR, captured antibody;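 also: antibody captured on a sensor chip, Fcγ receptor flowed over at 25 °C, receptor binding normalized to the captured antibody amount and expressed relative to the reference antibody ×100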
Protocol: as §1, §2

relative binding activity | Binder
13 % of GpH7-B3/GpL16-k0 | B1
34 % of GpH7-B3/GpL16-k0 | B2
9 % of GpH7-B3/GpL16-k0 | B3
0 % of GpH7-B3/GpL16-k0 | B4
55 % of GpH7-B3/GpL16-k0 | B5
2 % of GpH7-B3/GpL16-k0 | B6
75 % of GpH7-B3/GpL16-k0 | B7
48 % of GpH7-B3/GpL16-k0 | B8
14 % of GpH7-B3/GpL16-k0 | B9
2 % of GpH7-B3/GpL16-k0 | B10
99 % of GpH7-B3/GpL16-k0 | B11
1 % of GpH7-B3/GpL16-k0 | B12
1 % of GpH7-B3/GpL16-k0 | B13
58 % of GpH7-B3/GpL16-k0 | B14
8 % of GpH7-B3/GpL16-k0 | B15
-1 % of GpH7-B3/GpL16-k0 | B16
0 % of GpH7-B3/GpL16-k0 | B17

Target: T3, human FcγRIIb
Assay: SPR, captured antibody;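 also: antibody captured on a sensor chip, Fcγ receptor flowed over at 25 °C, receptor binding normalized to the captured antibody amount and expressed relative to the reference antibody ×100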
Protocol: as §1, §2

relative binding activity | Binder
27 % of GpH7-B3/GpL16-k0 | B1
78 % of GpH7-B3/GpL16-k0 | B2
35 % of GpH7-B3/GpL16-k0 | B3
-1 % of GpH7-B3/GpL16-k0 | B4
38 % of GpH7-B3/GpL16-k0 | B5
1 % of GpH7-B3/GpL16-k0 | B6
33 % of GpH7-B3/GpL16-k0 | B7
28 % of GpH7-B3/GpL16-k0 | B8
27 % of GpH7-B3/GpL16-k0 | B9
0 % of GpH7-B3/GpL16-k0 | B10
87 % of GpH7-B3/GpL16-k0 | B11
3 % of GpH7-B3/GpL16-k0 | B12
0 % of GpH7-B3/GpL16-k0 | B13
53 % of GpH7-B3/GpL16-k0 | B14
15 % of GpH7-B3/GpL16-k0 | B15
-3 % of GpH7-B3/GpL16-k0 | B16
-2 % of GpH7-B3/GpL16-k0 | B17
